Assay [1] has as its system sulfated N-terminal peptide of CCR5. The assay is described as follows: SPR kinetic interaction analysis of BA8 Fab (wild type and mutants) with the sulfated peptide. Format: binding. The note with it: SPR Biacore 8K, PBS 0.005% Tween 20, global fitting. The text has this:
To quantitatively evaluate the intermolecular interaction between BA8 and the sulfated N-terminal peptide of CCR5, we prepared a Fab fragment of BA8 as a recombinant protein (Fig. S2, A and B) and conducted kinetic interaction analysis using SPR. The Fab was immobilized on a sensor chip using amine coupling, and the synthesized sulfated and non-sulfated N-terminal peptides of CCR5 were used as the analytes.
To further dissect how molecular recognition occurs, we evaluated the contribution of individual residues of BA8 to the recognition of the sulfated peptide. We analyzed the crystal structure using the PDB PISA server, and we conducted mutation analyses in which the residues predicted to form hydrogen bonds or located at the interface were mutated to alanine (Fig. 3B).
The bindings of the peptides to Fabs were analyzed using a Biacore 8K instrument (Cytiva). Each Fab was immobilized on the surface of a CM5 sensor chip (Cytiva) by the amine-coupling method according to the manufacturer’s instructions in the condition of pH 5.5. The immobilization level reached to about 3000 Response Unit (RU). PBS containing 0.005% Tween 20 was used as the running buffer. The kinetic data were obtained by injection of increasing concentrations of peptides into the sensor chip. The flow rate of the analyte were set to 30 μl/min. The data were analyzed using BIAevaluation software (Cytiva), and the binding affinity as well as kinetic parameters were calculated by a global fitting of the curves.
Background: In SPR one partner is held on a chip, and binding of the other changes the refractive index at the surface.

The subject of assay [2] is sulfated CCR5 on HEK293 cells transfected with CCR5 + TPST2 (C2). The experiment in a line: Flow cytometry binding to C2 cells. In kind it is cell-based. The source says: (§1) We prepared model cells with transient overexpression to examine whether BA8 can recognize sulfated full-length CCR5. As referred in the Introduction section, previous research has shown that protein tyrosine sulfotransferases (TPSTs) are responsible for tyrosine sulfation ([10], [11], [12]). Those two isoforms of TPST (TPST1 and TPST2) and CCR5 genes were transiently transfected in the following five combinations to HEK293 cells: Negative Control (NC); CCR5 (C); CCR5 + TPST1 (C1); CCR5 + TPST2 (C2); and CCR5 + TPST1 + TPST2 (C12). Each protein contained the following tag sequences at the C-terminus: CCR5 – FLAG, TPST1 – HA, and TPST2 – Myc. The overexpression of each protein was confirmed by western blotting using tag antibodies (Fig. 5, A and B).
(§2) We conducted flow cytometry using these cells to confirm that BA8 can recognize sulfated CCR5 expressed on the cell surface (Fig. 5D).
(§3) To quantitatively evaluate the binding ability of BA8 to C2 and C12 cells, we plotted the median fluorescence intensity of antibody binding against BA8 concentration (Fig. 5E). An increase in the signal with increasing antibody concentration was confirmed, and the binding activity was quantitatively evaluated by fitting with a sigmoid function.
(§4) HEK293 cells stored in liquid nitrogen were initiated into the culture by thawing. […]
(In flow cytometry, cells or beads pass a laser one at a time.)

Assay [3] deals with CCR5 sulfated by TPST2 in cell lysates. The experiment in a line: Western blotting of transfected HEK293 cell lysates with BA8 as detection antibody. The note with it: 100 nM BA8 (full-length IgG) as detection antibody; lysates of NC, C, C1, C2, C12 cells. Format: binding.
Source text: as §1
We prepared recombinant BA8 as a full-length IgG form for subsequent cell-based assays (Fig. S2, C and D).
The cell lysate suspended in RIPA Buffer was placed on ice for 30 min, followed by centrifugation at 20,000 × g for 20 min. […] Protein bands were detected by incubating the membranes with anti-DDDDK-tag mAb-HRP-DirecT, anti-HA tag mAb-HRP-DirecT, anti-Myc tag mAb-HRP-DirecT (all from MBL Lifescience), or each IgG followed by incubation with horseradish peroxidase (HRP)-conjugated anti-rabbit IgG, HRP-linked antibody (Cell Signaling Technology) at room temperature for 30 min. […]
For orientation: Immunoblotting shows a protein as a band on a membrane.

Assay [4] concerns YU2 (CCR5 tropic strain) strain in TZM-bl cells. The experiment in a line: Pseudoviral assay (single-round viral infective assay) in TZM-bl cells. To be noted: 48 h post-infection, luciferase read-out, BA8 up to 50 μg/ml (approximately 350 nM). Format: cell-based, HIV.
Method: Subsequently, we conducted a pseudoviral test using TZM-bl cells.
The anti-HIV activity of BA8, isotype control antibody, and Maraviroc (Sigma-Aldrich) in a single-round viral infective assay against the YU2 (CCR5 tropic strain) strain in TZM-bl cells. At 48 h post-infection, cells were lysed, and relative light units were measured using a Steady-Glo luciferase assay system and GloMax Discover microplate reader (Promega).
Assay [5] relates to sulfated CCR5 on HEK293 cells transfected with CCR5 + TPST1 + TPST2 (C12). The assay is described as follows: Flow cytometry binding to C12 cells. The note with it: BA8 full-length IgG, median fluorescence intensity vs concentration, sigmoid fit, read-out: half-maximal binding concentration (BC50). Format: cell-based.
Source text: as §1, §2, §3, §4

In assay [6] the test system is endogenous CCR5 expressed on TZM-bl. The experiment in a line: Flow cytometry binding to TZM-bl cells. In kind it is cell-based. To be noted: BA8 full-length IgG, read-out: BC50 (the source's name).
Method: Cells were aliquoted into 96 Well Conical (V) Bottom Plates (ThermoFisher Scientific) at 50,000 cells per sample and fixed with 2% paraformaldehyde at 4 °C for 30 min. After a PBS wash, 50 μl of goat anti-rabbit IgG Alexa 488 (Invitrogen) diluted 1000-fold by PBS were added to the sample. After incubation at 4 °C for 30 min, PBS washed cells were diluted with PBS containing 2% fetal bovine serum, and flow cytometry was performed using a FACS Canto system (BD Biosciences).
Where [7] appears, read: Fab immobilized on CM5 chip, sulfated peptide as analyte.

The values that follow come from publication PMC11849073, “Specific recognition mechanism of an antibody to sulfated tyrosine and its potential use in biological research” (The Journal of Biological Chemistry, 2025).

“And” between values parts separate entries of the source, which are not always exact repeats. Equal entries are not always repeated. “Also recorded” adds a separate entry of the source. Where two headings read alike, the source gives them in different places.

B1: BA8: rabbit antibody clone from phage display that specifically recognizes the sulfated N-terminal peptide of CCR5 (antibody, V domains shown)
VH: QSLEESGGGLFKPTDTLTLTCTVSGFSLSSYSIRWVRQAPGNGLEWIGAIGSGGNAYYTSWAKSRSTITRNTNENTVTLKMTSLTVADTATYFCARGGINFGIWGPGTLVTVSS
VL: AAVLTQTPSPVSAAVGSTVTINCQSSQSVYSKNWLSWFQQKPGQPPKQLIYSASTLDSGVPSRFSGSGSGTQFTLTISGVQCDDAATYYCQGTYGDASAFGGGTEVVVK
In general, Kd refers to the constant that tells how readily two partners part at equilibrium. As a reminder, the koff is the first-order rate constant of dissociation. A high value points to fast dissociation. In the case of B1, the kon in assay [1] (Fab immobilized on CM5 chip by amine coupling (~3000 RU), sulfated peptide as analyte (2 to 162 nM; 20 nM to 1620 nM for the weak mutants of Fig. 3), 30 μl/min) was found to be 251000 mol/L/s. For the same molecule, the equilibrium dissociation constant (Kd) in assay [1] (setting [7]) amounted to 0.809 nM. In assay [1] (setting [7]), this molecule showed a koff of 0.000203 s⁻¹. Also, the EC50 was 3.64 nM in assay [2] (C2 cells, BA8 full-length IgG, median fluorescence intensity vs concentration, sigmoid fit, read-out: half-maximal binding concentration (BC50)); roughly 3 nM in assay [2] (HEK293 overexpression system, C2 or C12 not specified, read-out: BC50 in overexpression system using HEK293 cells (approximate, discussion)); 3.71 nM in assay [5]; 49 nM and ~50 nM in assay [6]. For the same molecule, the “recognition of CCR5 in cell lysates by western blotting, in words” value in assay [3] is “specifically recognized CCR5 in the lysates of cells C2 and C12”. Further, the “inhibition of HIV infection, in words” value in assay [4] is recorded as “did not significantly inhibit the infection; also recorded: did not show inhibitory activity”.
